From article PMC4212957, “The serodominant secreted effector protein of Salmonella, SseB, is a strong CD4 antigen containing an immunodominant epitope presented by diverse HLA class II alleles” (Immunology, 2014)

Legend:
HLA-DRB1*15:01 = molecular target: T1, HLA-DRB1*15:01 (Homo sapiens, UniProt P01903+P01911); assay: Peptide/HLA-DR binding, competitive ELISA; conditions: ratio IC50 of peptide / IC50 of reference peptide A3 152–166, lower = higher affinity, ratio 20 or less high, 20–100 moderate, three independent experiments
T1 construct: HLA-DR heterodimers were purified from homozygous Epstein–Barr virus B-lymphoblastoid cell lines; host or cells: homozygous EBV B-lymphoblastoid cell line
Protocol: (§1) HLA-DR heterodimers were purified from homozygous Epstein–Barr virus B-lymphoblastoid cell lines (HPA Culture Collections, Salisbury, UK) by affinity chromatography with the monomorphic HLA-DRα monoclonal antibody, L243.[29],[30] Binding of the SseB peptide panel to the HLA-DR molecules HLA-DRB1*01:01, 03:01, 04:01, 07:01, 09:01, 11:01, 12:02, 15:01, 15:02 was assessed by competitive ELISA, as previously described, using an automated workstation.[29],[30] We evaluated the peptide concentration able to prevent binding of 50% of the labelled peptide (IC50). Data were expressed as relative affinity: ratio of the IC50 of the peptide to the IC50 of the reference peptide, which is a high binder to the HLA class II molecule. Unlabelled forms of the biotinylated peptides were used as reference peptides.

HLA-DRB1*12:02 = HLA-DRB1*12:02 (Homo sapiens, UniProt P01903+P01911, A100R/A169T/D57E/D86V/F55L/H45Y/I96F/K41T/L162R/M171V/P40S/Q125H/Q178H/Q39Y/Q99D/R42G/S66L/T262R/V114A/V67L/W38E/Y59H/Y61H/Y89S); assay: Peptide/HLA-DR binding, competitive ELISA; conditions: ratio IC50 of peptide / IC50 of reference peptide TFR 141–155, lower = higher affinity, ratio 20 or less high, 20–100 moderate, three independent experiments
Protocol: as §1

HLA-DRB1*15:02 = molecular target: T2, HLA-DRB1*15:02 (Homo sapiens, UniProt P01903+P01911, V115G); assay: Peptide/HLA-DR binding, competitive ELISA; conditions: ratio IC50 of peptide / IC50 of reference peptide TFR 607–620, lower = higher affinity, ratio 20 or less high, 20–100 moderate, three independent experiments
T2 construct: HLA-DR heterodimers were purified from homozygous Epstein–Barr virus B-lymphoblastoid cell lines; host or cells: homozygous EBV B-lymphoblastoid cell line
Protocol: as §1

HLA-DRB1*09:01 = molecular target: T3, HLA-DRB1*09:01 (Homo sapiens, UniProt P01903+P01911, A100R/A103E/D57H/D86V/F55Y/F60I/F76Y/I96F/K127E/L162R/M171V/P40D/Q125H/Q99R/R33Q/R42F/S133A/S66N/T210M/V115G/W38K/Y107V/Y59G/Y89S); assay: Peptide/HLA-DR binding, competitive ELISA; conditions: ratio IC50 of peptide / IC50 of reference peptide CTP 427–441, lower = higher affinity, ratio 20 or less high, 20–100 moderate, three independent experiments
T3 construct: HLA-DR heterodimers were purified from homozygous Epstein–Barr virus B-lymphoblastoid cell lines; host or cells: homozygous EBV B-lymphoblastoid cell line
Protocol: as §1

HLA-DRB1*03:01 = molecular target: T4, HLA-DRB1*03:01 (Homo sapiens, UniProt P01903+P01911, A100K/A102G/A103R/A169T/F55Y/I96L/K41T/L162R/M171V/P40S/Q125H/Q178H/Q39Y/R42S/S66N/T106N/T262R/W38E/Y61H); assay: Peptide/HLA-DR binding, competitive ELISA; conditions: ratio IC50 of peptide / IC50 of reference peptide MT2-16, lower = higher affinity, ratio 20 or less high, 20–100 moderate, three independent experiments
T4 construct: HLA-DR heterodimers were purified from homozygous Epstein–Barr virus B-lymphoblastoid cell lines; host or cells: homozygous EBV B-lymphoblastoid cell line
Protocol: as §1

HLA-DRB1*04:01 = HLA-DRB1*04:01 (Homo sapiens, UniProt P01903+P01911, A100K/A169T/F76Y/I96L/K127E/L162R/M171V/N62H/P40V/Q125Y/R42H/S133A/S149N/S66Y/V115G/V209L/W38E); conditions: competitive ELISA; ratio IC50 of peptide / IC50 of reference peptide HA 306–318; lower = higher affinity; ratio 20 or less high, 20–100 moderate; three independent experiments
HLA-DRB1*01:01 = HLA-DRB1*01:01 (Homo sapiens, UniProt P01903+P01911, A100R/D57E/F55L/F60I/F76Y/I96L/L162R/M171V/P40L/Q125E/R42F/V115G/Y59C); conditions: competitive ELISA; ratio IC50 of peptide / IC50 of reference peptide HA 306–318; lower = higher affinity; ratio 20 or less high, 20–100 moderate; three independent experiments
HLA-DRB1*07:01 = HLA-DRB1*07:01 (Homo sapiens, UniProt P01903+P01911, A100R/A102G/A103Q/D57E/D86V/E43K/F76Y/K127E/L162R/M171V/P40G/Q125H/Q99D/R33Q/R42Y/R54Q/S133A/S66F/T210M/V115G/Y107V/Y59L/Y89S); conditions: competitive ELISA; ratio IC50 of peptide / IC50 of reference peptide HA 306–318; lower = higher affinity; ratio 20 or less high, 20–100 moderate; three independent experiments
HLA-DRB1*11:01 = HLA-DRB1*11:01 (Homo sapiens, UniProt P01903+P01911, A100R/A169T/A87E/I96F/K41T/L162R/M171V/P40S/Q125H/Q178H/Q39Y/Q99D/R42S/S66Y/T262R/V115G/W38E); conditions: competitive ELISA; ratio IC50 of peptide / IC50 of reference peptide HA 306–318; lower = higher affinity; ratio 20 or less high, 20–100 moderate; three independent experiments

5: SseB overlapping library peptide, residues 41–60 (EGYGVLLILLMVIQAIANNK) [Peptide 5]
Relative binding affinity of peptide to HLA-DR molecules DRB1*1501 (HLA-DRB1*15:01): > 270 | Relative binding affinity of peptide to HLA-DR molecules DRB1*1202 (HLA-DRB1*12:02): > 136 | Relative binding affinity of peptide to HLA-DR molecules DRB1*1502 (HLA-DRB1*15:02): > 3 333 | Relative binding affinity of peptide to HLA-DR molecules DRB1*0901 (HLA-DRB1*09:01): > 689 | Relative binding affinity of peptide to HLA-DR molecules DRB1*0301 (HLA-DRB1*03:01): > 119 | Relative binding affinity of peptide to HLA-DR molecules DRB1*0401 (HLA-DRB1*04:01): > 145 | Relative binding affinity of peptide to HLA-DR molecules DRB1*0101 (HLA-DRB1*01:01): > 4149 | Relative binding affinity of peptide to HLA-DR molecules DRB1*0701 (HLA-DRB1*07:01): > 336 | Relative binding affinity of peptide to HLA-DR molecules DRB1*1101 (HLA-DRB1*11:01): > 278

15: SseB overlapping library peptide, residues 141–160 (KAALDNDANRNTDLMSQGQI) [Peptide 15]
Relative binding affinity of peptide to HLA-DR molecules DRB1*1501 (HLA-DRB1*15:01): > 270 | Relative binding affinity of peptide to HLA-DR molecules DRB1*1202 (HLA-DRB1*12:02): > 136 | Relative binding affinity of peptide to HLA-DR molecules DRB1*1502 (HLA-DRB1*15:02): > 3 333 | Relative binding affinity of peptide to HLA-DR molecules DRB1*0901 (HLA-DRB1*09:01): > 689 | Relative binding affinity of peptide to HLA-DR molecules DRB1*0301 (HLA-DRB1*03:01): 57 | Relative binding affinity of peptide to HLA-DR molecules DRB1*0401 (HLA-DRB1*04:01): > 145 | Relative binding affinity of peptide to HLA-DR molecules DRB1*0101 (HLA-DRB1*01:01): > 4149 | Relative binding affinity of peptide to HLA-DR molecules DRB1*0701 (HLA-DRB1*07:01): > 336 | Relative binding affinity of peptide to HLA-DR molecules DRB1*1101 (HLA-DRB1*11:01): > 278

MSSGNILWGSQNPIVFKNSF [Peptide 1]
Relative binding affinity of peptide to HLA-DR molecules DRB1*1501 (HLA-DRB1*15:01): 7 | Relative binding affinity of peptide to HLA-DR molecules DRB1*1202 (HLA-DRB1*12:02): 3 | Relative binding affinity of peptide to HLA-DR molecules DRB1*1502 (HLA-DRB1*15:02): > 3 333 | Relative binding affinity of peptide to HLA-DR molecules DRB1*0901 (HLA-DRB1*09:01): > 689 | Relative binding affinity of peptide to HLA-DR molecules DRB1*0301 (HLA-DRB1*03:01): > 119 | Relative binding affinity of peptide to HLA-DR molecules DRB1*0401 (HLA-DRB1*04:01): 12 | Relative binding affinity of peptide to HLA-DR molecules DRB1*0101 (HLA-DRB1*01:01): 447 | Relative binding affinity of peptide to HLA-DR molecules DRB1*0701 (HLA-DRB1*07:01): 6 | Relative binding affinity of peptide to HLA-DR molecules DRB1*1101 (HLA-DRB1*11:01): > 278

10: SseB overlapping library peptide, residues 91–110 (GDAKTKEEVPEDVIKYMRDN) [Peptide 10]
Relative binding affinity of peptide to HLA-DR molecules DRB1*1501 (HLA-DRB1*15:01): 58 | Relative binding affinity of peptide to HLA-DR molecules DRB1*1202 (HLA-DRB1*12:02): > 136 | Relative binding affinity of peptide to HLA-DR molecules DRB1*1502 (HLA-DRB1*15:02): > 3 333 | Relative binding affinity of peptide to HLA-DR molecules DRB1*0901 (HLA-DRB1*09:01): > 689 | Relative binding affinity of peptide to HLA-DR molecules DRB1*0301 (HLA-DRB1*03:01): > 119 | Relative binding affinity of peptide to HLA-DR molecules DRB1*0401 (HLA-DRB1*04:01): > 145 | Relative binding affinity of peptide to HLA-DR molecules DRB1*0101 (HLA-DRB1*01:01): > 4149 | Relative binding affinity of peptide to HLA-DR molecules DRB1*0701 (HLA-DRB1*07:01): 87 | Relative binding affinity of peptide to HLA-DR molecules DRB1*1101 (HLA-DRB1*11:01): > 278

9: SseB overlapping library peptide, residues 81–100 (MDEVIAKAAKGDAKTKEEVP) [Peptide 9]
Relative binding affinity of peptide to HLA-DR molecules DRB1*1501 (HLA-DRB1*15:01): 200 | Relative binding affinity of peptide to HLA-DR molecules DRB1*1202 (HLA-DRB1*12:02): > 136 | Relative binding affinity of peptide to HLA-DR molecules DRB1*1502 (HLA-DRB1*15:02): > 3 333 | Relative binding affinity of peptide to HLA-DR molecules DRB1*0901 (HLA-DRB1*09:01): 626 | Relative binding affinity of peptide to HLA-DR molecules DRB1*0301 (HLA-DRB1*03:01): 41 | Relative binding affinity of peptide to HLA-DR molecules DRB1*0401 (HLA-DRB1*04:01): > 145 | Relative binding affinity of peptide to HLA-DR molecules DRB1*0101 (HLA-DRB1*01:01): 1508 | Relative binding affinity of peptide to HLA-DR molecules DRB1*0701 (HLA-DRB1*07:01): > 336 | Relative binding affinity of peptide to HLA-DR molecules DRB1*1101 (HLA-DRB1*11:01): 8
